In one data set the target is TRIM25 CCD (human, UniProt Q14258 189-379). The experiment in a line: EMSA.
The target in another data set is TRIM25 CCD+7K (human, UniProt Q14258 189-409). As to the kind of experiment: EMSA.
Data set [1] addresses T1, TRIM25 WT (human, UniProt Q14258 1-630). As to the kind of experiment: EMSA.
Another data set has as its target TRIM25 SPRY (human, UniProt Q14258 410-630). The experiment in a line: EMSA.
In a further data set the target is TRIM25 CCD-SPRY (human, UniProt Q14258 189-630). As to the kind of experiment: EMSA.
Sequence of TRIM25 CCD-SPRY (Q14258 189-630): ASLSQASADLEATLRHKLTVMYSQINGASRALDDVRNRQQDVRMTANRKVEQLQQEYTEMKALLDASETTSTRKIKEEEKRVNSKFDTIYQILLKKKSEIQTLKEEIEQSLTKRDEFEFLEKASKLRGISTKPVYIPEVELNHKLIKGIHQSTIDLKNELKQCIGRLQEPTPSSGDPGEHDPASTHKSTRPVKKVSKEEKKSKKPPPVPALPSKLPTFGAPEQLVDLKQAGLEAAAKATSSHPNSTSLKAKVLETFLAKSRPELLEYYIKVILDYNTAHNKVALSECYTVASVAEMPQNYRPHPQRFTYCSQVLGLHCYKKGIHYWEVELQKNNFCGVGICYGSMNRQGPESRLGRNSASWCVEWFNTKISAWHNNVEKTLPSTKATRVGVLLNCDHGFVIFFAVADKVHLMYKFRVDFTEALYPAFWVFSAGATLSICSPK
The next data set concerns the target T2, TRIM25 7K peptide (human, UniProt Q14258 379-394).
T2 chain: PVKKVSKEEKKSKKPP
As to the kind of experiment: EMSA.

The next data set addresses TRIM25 ΔSPRY (RBCC) (human, UniProt Q14258 1-379). As to the kind of experiment: EMSA.
The data set “SEC-MALS” concerns the molecule itself. The experiment in a line: SEC-MALS.
The next data set addresses TRIM25 7KA mutant (human, UniProt Q14258 1-630, K381A;K382A;K385A;K388A;K389A;K391A;K392A). The experiment in a line: SEC-MALS.
Data set [2] concerns the target T1, TRIM25 WT. As to the kind of experiment: SEC-MALS.

T1 sequence (Q14258 whole entry): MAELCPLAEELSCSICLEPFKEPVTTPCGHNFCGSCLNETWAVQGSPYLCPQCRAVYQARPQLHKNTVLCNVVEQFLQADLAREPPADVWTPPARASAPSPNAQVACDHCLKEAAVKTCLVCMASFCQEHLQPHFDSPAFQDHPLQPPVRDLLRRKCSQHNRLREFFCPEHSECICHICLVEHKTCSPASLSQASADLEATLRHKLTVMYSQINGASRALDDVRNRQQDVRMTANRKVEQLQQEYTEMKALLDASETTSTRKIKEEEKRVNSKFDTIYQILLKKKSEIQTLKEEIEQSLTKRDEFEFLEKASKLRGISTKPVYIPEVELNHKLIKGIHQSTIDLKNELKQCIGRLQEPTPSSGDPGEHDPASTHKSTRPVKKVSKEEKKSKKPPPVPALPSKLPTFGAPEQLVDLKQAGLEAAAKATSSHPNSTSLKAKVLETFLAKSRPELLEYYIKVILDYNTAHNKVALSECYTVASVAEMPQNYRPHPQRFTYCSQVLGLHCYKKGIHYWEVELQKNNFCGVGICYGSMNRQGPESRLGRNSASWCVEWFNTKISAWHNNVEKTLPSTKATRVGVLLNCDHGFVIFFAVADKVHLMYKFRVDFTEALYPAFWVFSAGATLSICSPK
Sequence of TRIM25 CCD+7K (Q14258 189-409): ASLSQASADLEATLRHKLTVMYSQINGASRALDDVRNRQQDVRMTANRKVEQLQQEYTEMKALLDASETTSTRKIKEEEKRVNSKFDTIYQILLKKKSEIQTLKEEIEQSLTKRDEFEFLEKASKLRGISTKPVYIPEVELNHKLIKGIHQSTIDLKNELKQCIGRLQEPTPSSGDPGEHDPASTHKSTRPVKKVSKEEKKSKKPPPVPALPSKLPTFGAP

B1: 28-bp dsRNA, fluorescent (dsRNA)
RNA 1: AUGGCUAGCUGGAGCCACCCGCAGUUCG
RNA 2: CGAACUGCGGGUGGCUCCAGCUAGCCAU
As for B1, the binding result in the data set with TRIM25 CCD, in the data set with TRIM25 CCD+7K, with TRIM25 7K peptide and with TRIM25 ΔSPRY (RBCC) was “no binding” in each case. Besides, the Kd was 260 ± 30 nM with TRIM25 WT [1], 3470 ± 1170 nM in the data set with TRIM25 SPRY and 110 ± 20 nM with TRIM25 CCD-SPRY.

B2: Full-length TRIM25 7KA mutant, purified (enzyme, human, UniProt Q14258 1-630, looked up)
chain: MAELCPLAEELSCSICLEPFKEPVTTPCGHNFCGSCLNETWAVQGSPYLCPQCRAVYQARPQLHKNTVLCNVVEQFLQADLAREPPADVWTPPARASAPSPNAQVACDHCLKEAAVKTCLVCMASFCQEHLQPHFDSPAFQDHPLQPPVRDLLRRKCSQHNRLREFFCPEHSECICHICLVEHKTCSPASLSQASADLEATLRHKLTVMYSQINGASRALDDVRNRQQDVRMTANRKVEQLQQEYTEMKALLDASETTSTRKIKEEEKRVNSKFDTIYQILLKKKSEIQTLKEEIEQSLTKRDEFEFLEKASKLRGISTKPVYIPEVELNHKLIKGIHQSTIDLKNELKQCIGRLQEPTPSSGDPGEHDPASTHKSTRPVAAVSAEEAASAAPPPVPALPSKLPTFGAPEQLVDLKQAGLEAAAKATSSHPNSTSLKAKVLETFLAKSRPELLEYYIKVILDYNTAHNKVALSECYTVASVAEMPQNYRPHPQRFTYCSQVLGLHCYKKGIHYWEVELQKNNFCGVGICYGSMNRQGPESRLGRNSASWCVEWFNTKISAWHNNVEKTLPSTKATRVGVLLNCDHGFVIFFAVADKVHLMYKFRVDFTEALYPAFWVFSAGATLSICSPK
Regarding B2, the binding result in “SEC-MALS” is recorded as “binds”.

B3: 56-bp dsRNA (dsRNA)
RNA 1: AUGGCUAGCUGGAGCCACCCGCAGUUCGUACAAGGAUGACGAUGACAAGGGUACAA
RNA 2: UUGUACCCUUGUCAUCGUCAUCCUUGUACGAACUGCGGGUGGCUCCAGCUAGCCAU
With B3, the binding result is “no binding” with TRIM25 7KA mutant and “binds” with TRIM25 WT [2].

These data come from paper PMC6289755 (Journal of molecular biology, 2018).
